Data on 1 sequence can be found in article PMC7593272.

This data set addresses T1, response regulator Awo_c25920 (Reg) (Acetobacterium woodii) (UniProt H6LEQ6).
T1 sequence: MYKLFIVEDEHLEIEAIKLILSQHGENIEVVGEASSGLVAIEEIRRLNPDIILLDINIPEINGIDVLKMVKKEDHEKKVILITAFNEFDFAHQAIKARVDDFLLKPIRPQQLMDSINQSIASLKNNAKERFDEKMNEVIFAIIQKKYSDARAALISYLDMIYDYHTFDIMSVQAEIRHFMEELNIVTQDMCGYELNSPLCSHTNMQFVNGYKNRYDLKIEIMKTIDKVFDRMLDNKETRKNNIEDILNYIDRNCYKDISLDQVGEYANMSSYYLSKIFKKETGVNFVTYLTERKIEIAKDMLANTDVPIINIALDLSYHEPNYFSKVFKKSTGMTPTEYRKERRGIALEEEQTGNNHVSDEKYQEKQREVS
Nature of the data set: EMSA. The note with it: EMSA in 12 ul buffer B: 50 mM Tris-HCl, 125 mM NaCl, 10 mM glycerol, 5 mM MgCl2, pH 7.8, 6% native PAGE in 1X TAE at 4 C, ethidium bromide stain. (In general: A gel shift assay detects complexes by their altered migration in electrophoresis.)

As to “CATAAAACTAAAAAAATAGTCAAAAAAGCAGAACAGGAAAACCTTAGGGTTAACCTGTTCTTTTTATACGTTAGAATTAGAAATGTGATTTTAAAGTACAGGTATTAGACAAAATATTACACTATGTTTTTATGGATAGAGACAAAAAACAGCGTTAGTAAAAGGTTTTCAAGGTGGTTTTAAGAAACAAACAATAATTTTATAAGAATAGCACAAGTAATTACCATAGCCTTTGAATTAAAATATAGTTAGTTCAGTAATAAAATCTTGTAATTAAGGAGGATAGAGCTT (double strand) [291 bp intergenic region upstream of pduA]”, the binding entry is reported as “binds”.
